For 41 sequences, Kd results are on record in the Immune Epitope Database (IEDB).

The Kd is the constant that tells how readily two partners part at equilibrium.

Holding throughout (assay): IEDB peptide-MHC binding, purified MHC/competitive/radioactivity; filed as Kd, often an IC50 or EC50 that approximates it; ≥ and ≤ were set here for values at or beyond the usual limits of such assays
The target in test [1] is HLA-A*68:01.
The target of test [2] is HLA-A*11:01.
The target in test [3] is HLA-A*33:01.
The target of test [4] is HLA-A*03:01.
The target of test [5] is HLA-A*31:01.
The mark [6] stands for this setting: source organism: Vaccinia virus WR.
[7] abbreviates: source organism: SARS coronavirus Tor2.
Where [8] appears, read: source organism: Dengue virus 3 Martinique/1243/1999.
[9] abbreviates: source organism: Mammarenavirus machupoense.
Where [10] appears, read: source organism: Dengue virus 2 Jamaica/1409/1983.
[11] abbreviates: source organism: Dengue virus 1 Brazil/97-11/1997.
Setting [12] is: source organism: Dengue virus 4 Philippines/H241/1956.
The mark [13] stands for this setting: source organism: Dengue virus 4 Dominica/814669/1981.
Where [14] appears, read: source organism: Lymphocytic choriomeningitis virus (strain Armstrong).

For LSARNKLFKR, the Kd is 124 nM in test [1] (setting [6]); 2680 nM in test [2] (setting [6]); 1710 nM in test [3] (setting [6]); ≥ 70100 nM in test [4] (setting [6]); 16.9 nM in test [5] (setting [6]).
For the sequence KSPLPSLEY, the Kd is ≥ 77700 nM in test [1] (setting [6]); 228 nM in test [2] (setting [6]); ≥ 77700 nM in test [3] (setting [6]); 278 nM in test [4] (setting [6]); 7390 nM in test [5] (setting [6]).
In the case of NVTSMEELAR, the Kd in test [1] (setting [6]) was determined as 2.82 nM; in test [2] (setting [6]), 227 nM; in test [3] (setting [6]) it was 254 nM; in test [4] (setting [6]) it was 5040 nM; in test [5] (setting [6]), 705 nM.
With LLIWAYLSKK, the dissociation constant Kd in test [1] (setting [6]) turned out to be 363 nM; in test [2] (setting [6]), 124 nM; in test [3] (setting [6]), 2340 nM; in test [4] (setting [6]), 42.1 nM; in test [5] (setting [6]) it was 1980 nM.
Regarding DVQRTRCKY, the Kd is 9190 nM in test [1] (setting [6]); ≥ 77900 nM in test [2] (setting [6]); ≥ 35300 nM in test [3] (setting [6]); ≥ 53900 nM in test [4] (setting [6]); ≥ 77900 nM in test [5] (setting [6]).
Consider SMTIREFPR, for which the Kd in test [1] (setting [6]) was 200 nM; in test [2] (setting [6]), 599 nM; in test [3] (setting [6]) it was 1.94 nM; in test [4] (setting [6]), 14800 nM; in test [5] (setting [6]) it was 0.164 nM.
On to AQCFKMFYK, for which the Kd in test [1] (setting [7]) came to 177 nM; in test [2] (setting [7]), 2.52 nM; in test [3] (setting [7]), 878 nM; in test [4] (setting [7]), 25.6 nM; in test [5] (setting [7]) it was 6.24 nM.
AALAFHLTSR: in test [5] (setting [8]), the Kd was 17.5 nM.
Turning to KVLRENTSPK, in test [4] (source organism: Homo sapiens), the Kd turned out to be 28.9 nM.
In the case of AAMQRKLEK, the Kd is ≥ 77700 nM in test [1] (setting [7]); 257 nM in test [2] (setting [7]); ≥ 77700 nM in test [3] (setting [7]); 7010 nM in test [4] (setting [7]); ≥ 21200 nM in test [5] (setting [7]).
Turning to FTQHLLNIR, the Kd is ≥ 77700 nM in test [1] (setting [6]); ≥ 77900 nM in test [2] (setting [6]); ≥ 77700 nM in test [3] (setting [6]); ≥ 78000 nM in test [4] (setting [6]); ≥ 77900 nM in test [5] (setting [6]).
In the case of IFMRDWNSK, the dissociation constant Kd stood at 2390 nM in test [1] (setting [6]); 8210 nM in test [2] (setting [6]); 8940 nM in test [3] (setting [6]); 11700 nM in test [4] (setting [6]); 8520 nM in test [5] (setting [6]).
As to SSFDYCGMDH, the Kd was 3400 nM in test [1] (setting [9]); 6580 nM in test [2] (setting [9]); ≥ 48900 nM in test [3] (setting [9]); 13800 nM in test [4] (setting [9]); 10600 nM in test [5] (setting [9]).
Turning to YIVHSYLKNY, the Kd in test [1] (setting [6]) is ≥ 70200 nM; in test [2] (setting [6]), ≥ 69800 nM; in test [3] (setting [6]) it was ≥ 70000 nM; in test [4] (setting [6]), ≥ 70100 nM; in test [5] (setting [6]), ≥ 70000 nM.
Consider VTLADAGFMK, for which the equilibrium dissociation constant (Kd) came out at 135 nM in test [1] (setting [7]); 3.92 nM in test [2] (setting [7]); 11700 nM in test [3] (setting [7]); 33 nM in test [4] (setting [7]); 1200 nM in test [5] (setting [7]).
Take NLKAMLYIIR: the Kd in test [1] (setting [6]) came out at 209 nM; in test [2] (setting [6]), 10900 nM; in test [3] (setting [6]), 133 nM; in test [4] (setting [6]) it was 8530 nM; in test [5] (setting [6]), 4840 nM.
Turning to WYLWEVKKQR, in test [3] (setting [10]), the Kd is 39.7 nM.
With TLGWLLQTPK, the Kd in test [4] (source organism: Homo sapiens) was determined as 7.5 nM.
On to SAKLRWFVER, for which the Kd in test [3] (setting [10]) stood at 46.5 nM; in test [5] (setting [10]), 26.3 nM.
HLKCRLKMDK: the equilibrium dissociation constant (Kd) in test [4] (setting [11]) was determined as 68 nM.
Consider CTTTGEHRR, for which the Kd in test [1] (source organism: Dengue virus 2 Peru/IQT2913/1996) stood at 27.6 nM.
With EFKEFAAGRR, the Kd in test [3] (setting [11]) turned out to be 37.6 nM.
Take LWRTLGRNKR: the Kd in test [5] (source organism: Dengue virus 3 Sri Lanka/1266/2000) came to 712 nM.
As for KPKPAVRFAI, in test [5] (setting [6]), the Kd was ≥ 70000 nM.
Take EKVETWALR: the Kd in test [1] (setting [8]) is ≥ 22900 nM; in test [3] (setting [8]) it was 74.9 nM.
On to AISGDDCVVK, for which the Kd in test [2] (setting [10]) worked out at 2070 nM.
As to MLNIMNRRK, the Kd in test [4] (setting [11]) is 21 nM.
For TTSKMLLNR, the Kd in test [1] (setting [12]) turned out to be 59.8 nM; in test [2] (setting [12]), 178 nM.
As to VTHSSAAQR, the Kd in test [1] (setting [10]) amounted to 42 nM; in test [5] (setting [10]), 25.8 nM.
QAAILMGLDK: in test [1] (setting [11]), the Kd worked out at 377 nM.
Turning to MATYGWNLVK, the dissociation constant Kd in test [2] (setting [11]) was 370 nM.
TYLALMATFK: the Kd in test [3] (setting [11]) is 11 nM.
With RQMEGEGIFK, the Kd in test [2] (setting [10]) came to 127 nM; in test [4] (setting [10]), 21.5 nM.
Turning to NTTSKMLLNR, the results for the Kd in test [1] (setting [12]) and in test [3] (setting [12]) were 179 nM and 100 nM, respectively.
As for VTAASAAQR, the equilibrium dissociation constant (Kd) in test [1] (setting [8]) came out at 43.2 nM.
In the case of RLKMDKLTLK, in test [4] (setting [11]), the Kd came out at 13 nM.
GYVLGVFLR: the dissociation constant Kd in test [3] (setting [13]) stood at 1820 nM; in test [5] (setting [13]) it was 53.2 nM.
For YTIGTTHFQR, the equilibrium dissociation constant (Kd) in test [1] (setting [10]) was 17.3 nM; in test [3] (setting [10]), 6.12 nM; in test [5] (setting [10]), 44.3 nM.
In the case of TANPVVTKK, in test [2] (setting [8]), the Kd came to 245 nM.
Take LVMAFIAFLR: the Kd in test [1] (setting [11]) stood at 31.8 nM; in test [2] (setting [11]), 1380 nM; in test [3] (setting [11]), 106 nM; in test [5] (setting [11]), 73.5 nM.
As for LTKFVSAALH, the Kd in test [1] (setting [14]) turned out to be 221 nM; in test [3] (setting [14]), 3760 nM; in test [5] (setting [14]) it was 864 nM.
